Assay results published in article PMC10481361, “Structural insight into G-protein chaperone-mediated maturation of a bacterial adenosylcobalamin-dependent mutase” (The Journal of Biological Chemistry, 2023).
Residue numbers refer to the chain shown, from its start. In names and notes the source's numbering stands.

B1: Cupriavidus metallidurans isobutyryl-CoA mutase fused (IcmF), wild type (enzyme, UniProt Q1LRY0 1-1093, looked up)
chain: MTDLSDVSRTAAAKPPAVPGRGPANKVRFVTAASLFDGHDASINIMRRILQSQGCEVIHLGHNRSVQEVVTAALQEDVQGIAISSYQGGHVEYFKYMIDLLREHGGEHIQVFGGGGGVIVPDEIRELQAYGVARIYSPEDGQRMGLAGMITDMAQRCDIDLTRYAPTTLDTVVAGDRRALAQLITALENGKADPELVSALHAQAKAAAVPVLGITGTGGAGKSSLTDELIRRFRLDQDDALSIAVISIDPSRRKSGGALLGDRIRMNAINHPNIFMRSLATREAGSEISQALPDVIAACKAARFDLVIVETSGIGQGDAAIVPHVDLSLYVMTPEFGAASQLEKIDMLDFADFVAINKFDRKGAQDAWRDVAKQVQRNREQWHSRAEDMPVYGTQASRFNDDGVTMLYQGLVGALGARGMSLKPGTLPNLEGRISTGQNVIVPPARSRYLAELADTVRAYHRRVVAQSKLARERQQLRAAHDMLQGAGHESAALETLASERDVSLGAVERKLLAMWPQMQQAYSGDEYVVKIRDKEIRTGLISTTLSGTKIRKVVLPRFEDEGEILKWLMRENVPGSFPYTAGVFAFKREGEDPTRMFAGEGDAFRTNRRFKLVSEGMEAKRLSTAFDSVTLYGEDPHERPDIYGKVGNSGVSIATLEDMKVLYDGFDLTNPSTSVSMTINGPAPTILAMFMNTAIDQQIDRFRADNGRDPTADEEAKIRAWVLQNVRGTVQADILKEDQGQNTCIFSTEFSLKVMGDIQEYFVHHQVRNFYSVSISGYHIAEAGANPISQLAFTLANGFTYVEAYLARGMHIDDFAPNLSFFFSNGMDPEYSVLGRVARRIWAVTMRDKYGANDRSQKLKYHIQTSGRSLHAQEIDFNDIRTTLQALIAIYDNCNSLHTNAYDEAITTPTAESVRRALAIQLIINREWGVAKCENPNQGSFLIEELTDLVEEAVLQEFERIAERGGVLGAMETGYQRGKIQEESLYYEQLKHDGTLPIIGVNTFRNPNGDPTPQTLELARSSEDEKQSQLHRLTEFHGAHQADAEAMLARLRQAVIDNRNVFAVLMDAVRVCSLGQITHALFEVGGQYRRNM
notes: Isobutyryl-CoA mutase fused (IcmF) of Cupriavidus metallidurans; Resting state is a homodimer; dimers join through their G-protein domains into higher-order oligomers; The plasmid has a thrombin cleavage site after the His-tag; no cleavage is described; also called wt IcmF; cmIcmF; source: E. coli BL21 T7 Express, purified (Ni-NTA, MonoQ, SEC)
B2: Cupriavidus metallidurans isobutyryl-CoA mutase fused (IcmF), Q341A switch III variant (enzyme, UniProt Q1LRY0 1-1093, looked up)
chain: B1 chain with Q341A
notes: Isobutyryl-CoA mutase fused (IcmF) of Cupriavidus metallidurans with Q341A in the switch III region of the G-protein domain; also called Q341A IcmF; source: E. coli BL21 T7 Express, purified (Ni-NTA, MonoQ, SEC)

Columns and labels:
[1] = biological target: T1, IcmF (isobutyryl-CoA mutase fused) (Cupriavidus metallidurans, UniProt Q1LRY0); assay: negative stain EM of oligomers; type: binding; conditions: 500 μM GMPPNP; pH 8; with hydroxocobalamin or photolysed AdoCbl; weaker oligomerization agonist than GMPPCP
T1 construct: resting homodimer; oligomerizes with GTP/GMPPCP; modelled residues 22-1093
T1 sequence (Q1LRY0 1-1093): B1 chain

[2] = biological target: T2, IcmF (isobutyryl-CoA mutase fused) (Cupriavidus metallidurans, UniProt Q1LRY0, Q341A); assay: cryo-EM, […] Å; type: binding; conditions: sample prepared with 500 μM GTP, 2 μM enzyme; GDP modelled at each nucleotide site of the G-protein domain; Mg2+ in chain A
T2 construct: resting homodimer; oligomerizes with GTP/GMPPCP; modelled residues 22-1093
T2 sequence (Q1LRY0 whole entry Q341A, the tested form may be a part): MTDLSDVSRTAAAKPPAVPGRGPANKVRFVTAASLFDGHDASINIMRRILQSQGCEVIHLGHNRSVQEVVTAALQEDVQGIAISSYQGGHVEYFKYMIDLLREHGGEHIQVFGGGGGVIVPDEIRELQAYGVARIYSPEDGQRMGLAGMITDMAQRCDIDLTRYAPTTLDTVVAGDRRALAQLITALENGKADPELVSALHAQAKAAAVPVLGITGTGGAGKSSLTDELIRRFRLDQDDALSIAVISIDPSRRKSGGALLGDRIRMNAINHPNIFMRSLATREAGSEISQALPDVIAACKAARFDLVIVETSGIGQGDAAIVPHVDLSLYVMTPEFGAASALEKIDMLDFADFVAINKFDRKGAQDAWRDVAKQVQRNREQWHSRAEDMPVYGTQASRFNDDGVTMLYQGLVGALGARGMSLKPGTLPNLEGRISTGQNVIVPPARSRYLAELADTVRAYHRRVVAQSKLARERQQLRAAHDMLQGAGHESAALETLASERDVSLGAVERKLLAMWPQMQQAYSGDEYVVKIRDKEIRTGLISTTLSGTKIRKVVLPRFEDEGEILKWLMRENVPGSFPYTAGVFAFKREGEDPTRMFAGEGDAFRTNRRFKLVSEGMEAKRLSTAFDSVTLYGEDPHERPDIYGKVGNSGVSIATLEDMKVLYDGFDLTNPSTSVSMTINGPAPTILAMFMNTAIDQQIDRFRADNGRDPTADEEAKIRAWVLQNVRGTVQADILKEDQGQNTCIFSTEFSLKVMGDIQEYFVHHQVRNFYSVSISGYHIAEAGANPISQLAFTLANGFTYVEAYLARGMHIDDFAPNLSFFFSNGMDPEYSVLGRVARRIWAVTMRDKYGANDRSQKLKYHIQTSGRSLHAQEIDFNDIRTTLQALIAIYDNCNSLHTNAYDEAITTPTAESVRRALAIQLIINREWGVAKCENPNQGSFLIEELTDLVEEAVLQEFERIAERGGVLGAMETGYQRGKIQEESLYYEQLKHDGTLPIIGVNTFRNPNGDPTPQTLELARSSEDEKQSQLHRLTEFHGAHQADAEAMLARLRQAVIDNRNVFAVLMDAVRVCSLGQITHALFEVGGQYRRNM

[3] = biological target: the molecule itself; assay: negative stain EM; 20 ng/μl wt IcmF in 20 mM Hepes pH 8, 50 mM NaCl, no nucleotide or 500 μM GDP (30 min on ice); dimer seen, dimer with dimer not seen
[4] = substrate: Nc1nc2c(ncn2[C@@H]2O[C@H](COP(=O)(O)OP(=O)(O)OP(=O)(O)O)[C@@H](O)[C@H]2O)c(=O)[nH]1; assay: purified protein; type: biochemical, Cupriavidus metallidurans; conditions: GTPase, 0.5 μM enzyme, 23 °C, GTP 2–1500 μM
[5] = biological target: the molecule itself; assay: cryo-EM structure; 2 μM Q341A IcmF, 500 μM GTP in SEC buffer; 4.6 Å reconstruction, three protomers modelled

Molecule	negative stain EM of oligomers [1]	cryo-EM, 4.6 Å [2]	stoichiometry N [3]	Km [4]	Vmax [4]	kcat [4]	kcat/Km [4]	binding result [5]
Nc1nc2c(ncn2[C@@H]2O[C@H](COP(=O)(O)OP(=O)(O)NP(=O)(O)O)[C@@H](O)[C@H]2O)c(=O)[nH]1 [GMPPNP]	Photolysis of AdoCbl leads to more supramolecular complex formation but not as many as in the GMPPNP + OHCbl							
Nc1nc2c(ncn2[C@@H]2O[C@H](COP(=O)(O)OP(=O)(O)O)[C@@H](O)[C@H]2O)c(=O)[nH]1 [GDP]		there was clear density for GDP at each nucleotide-binding site						
B1			2	2.4 ± 0.9 µM	1.57 µM/min	0.0522 ± 0.003 s⁻¹	21700 M⁻¹ s⁻¹	
B2				2.2 ± 0.8 µM	0.533 µM/min	0.0178 ± 0.00117 s⁻¹	8170 M⁻¹ s⁻¹	binds
